The values that follow come from the supplement of paper PMC9112550, “Optimization of the antimicrobial peptide Bac7 by deep mutational scanning” (BMC Biology, 2022).
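Also: peptides expressed intracellularly from a pBAD plasmid library in pooled LB shake-flask culture, induced with 0.3% L-arabinose, DNA abundance read by NGS, three biological replicates, DESeq2 with apeglm shrinkage.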

The data set has as its system Escherichia coli TOP10. In words: shrunken log2 fold change of peptide-encoding DNA abundance (4.5 h post-induction vs induction); higher = less antimicrobial activity (less host growth inhibition). As to conditions: time post-induction: 4.5 h; library: site-saturation at positions 5, 18, 19, 20.
Regarding RRIRMRPPRLPRPRPRPRYKPRP, the “shrunken log2 fold change” value was found to be 0.104.

On to RRIRSRPPRLPRPRPRPKHNPRP, for which the “shrunken log2 fold change” value is -0.286.

For RRIRDRPPRLPRPRPRPLVTPRP, the “shrunken log2 fold change” value stood at 0.486.

Regarding RRIRKRPPRLPRPRPRPAFSPRP, the “shrunken log2 fold change” value is -0.0331.

Regarding RRIRERPPRLPRPRPRPVSTPRP, the “shrunken log2 fold change” value was -0.199.

Consider RRIRRRPPRLPRPRPRPQLMPRP, for which the “shrunken log2 fold change” value was determined as 0.247.

For RRIRYRPPRLPRPRPRPASQPRP, the “shrunken log2 fold change” value was -0.08.

For the sequence RRIRVRPPRLPRPRPRPPIGPRP, the “shrunken log2 fold change” value is 0.174.

For RRIRHRPPRLPRPRPRPVVGPRP, the “shrunken log2 fold change” value was found to be 0.0224.

For the sequence RRIRTRPPRLPRPRPRPNVGPRP, the “shrunken log2 fold change” value was 0.202.

RRIRSRPPRLPRPRPRPMHQPRP: the “shrunken log2 fold change” value was -0.0538.

Turning to RRIRHRPPRLPRPRPRPHHAPRP, the “shrunken log2 fold change” value was -0.0366.

As for RRIRDRPPRLPRPRPRPLWPPRP, the “shrunken log2 fold change” value came out at 0.662.

Regarding RRIRGRPPRLPRPRPRPLVGPRP, the “shrunken log2 fold change” value is 0.439.

For RRIRFRPPRLPRPRPRPCDCPRP, the “shrunken log2 fold change” value is -0.0184.

As to RRIRDRPPRLPRPRPRPLKFPRP, the “shrunken log2 fold change” value turned out to be 0.0649.

RRIRWRPPRLPRPRPRPLVWPRP: the “shrunken log2 fold change” value turned out to be 0.426.

Consider RRIRPRPPRLPRPRPRPMFFPRP, for which the “shrunken log2 fold change” value is -0.207.

Regarding RRIRARPPRLPRPRPRPWPYPRP, the “shrunken log2 fold change” value was -0.144.

For RRIRGRPPRLPRPRPRPKVTPRP, the “shrunken log2 fold change” value stood at 0.29.

On to RRIRQRPPRLPRPRPRPYTRPRP, for which the “shrunken log2 fold change” value is -0.0062.

With RRIRSRPPRLPRPRPRPHVGPRP, the “shrunken log2 fold change” value was -0.0134.

In the case of RRIRIRPPRLPRPRPRPMPSPRP, the “shrunken log2 fold change” value was -0.0227.

On to RRIRNRPPRLPRPRPRPRCHPRP, for which the “shrunken log2 fold change” value was -0.572.

Take RRIRIRPPRLPRPRPRPRMQPRP: the “shrunken log2 fold change” value was -0.199.

In the case of RRIRTRPPRLPRPRPRPYQDPRP, the “shrunken log2 fold change” value is -0.0173.

With RRIRERPPRLPRPRPRPSNWPRP, the “shrunken log2 fold change” value was -0.296.

Turning to RRIRQRPPRLPRPRPRPWTPPRP, the “shrunken log2 fold change” value is -0.061.

On to RRIRDRPPRLPRPRPRPQWRPRP, for which the “shrunken log2 fold change” value was found to be 0.21.

RRIRLRPPRLPRPRPRPDNNPRP: the “shrunken log2 fold change” value is -0.444.

For the sequence RRIRRRPPRLPRPRPRPPDYPRP, the “shrunken log2 fold change” value is 0.244.

With RRIRSRPPRLPRPRPRPVYTPRP, the “shrunken log2 fold change” value was -0.105.

As for RRIRPRPPRLPRPRPRPGMIPRP, the “shrunken log2 fold change” value is 0.0107.

For RRIRKRPPRLPRPRPRPRTEPRP, the “shrunken log2 fold change” value was determined as 1.04.

As for RRIRLRPPRLPRPRPRPEKAPRP, the “shrunken log2 fold change” value was determined as 0.166.

In the case of RRIRTRPPRLPRPRPRPNGKPRP, the “shrunken log2 fold change” value was -0.189.

With RRIRRRPPRLPRPRPRPVQVPRP, the “shrunken log2 fold change” value came to 0.189.

Turning to RRIRYRPPRLPRPRPRPRMGPRP, the “shrunken log2 fold change” value is -0.0782.

As to RRIRHRPPRLPRPRPRPQPDPRP, the “shrunken log2 fold change” value is -0.0791.

As to RRIRARPPRLPRPRPRPTTFPRP, the “shrunken log2 fold change” value is 0.177.

As for RRIRMRPPRLPRPRPRPYCCPRP, the “shrunken log2 fold change” value was -0.348.

For the sequence RRIRWRPPRLPRPRPRPRRMPRP, the “shrunken log2 fold change” value is 0.215.

With RRIRERPPRLPRPRPRPKKAPRP, the “shrunken log2 fold change” value is -0.0599.

Regarding RRIRLRPPRLPRPRPRPAMRPRP, the “shrunken log2 fold change” value was 0.28.

Consider RRIRTRPPRLPRPRPRPSCQPRP, for which the “shrunken log2 fold change” value is -0.21.

As to RRIRMRPPRLPRPRPRPRMRPRP, the “shrunken log2 fold change” value was determined as 1.41.

For the sequence RRIRFRPPRLPRPRPRPWDCPRP, the “shrunken log2 fold change” value turned out to be 0.00208.

Take RRIRRRPPRLPRPRPRPDVKPRP: the “shrunken log2 fold change” value is 3.47.

On to RRIRHRPPRLPRPRPRPNAMPRP, for which the “shrunken log2 fold change” value is -0.0505.

On to RRIRSRPPRLPRPRPRPALVPRP, for which the “shrunken log2 fold change” value was found to be 0.398.

Regarding RRIRKRPPRLPRPRPRPYHGPRP, the “shrunken log2 fold change” value is -0.000893.

RRIRSRPPRLPRPRPRPLQVPRP: the “shrunken log2 fold change” value was -0.157.

As for RRIRFRPPRLPRPRPRPIINPRP, the “shrunken log2 fold change” value was -0.869.

As for RRIRSRPPRLPRPRPRPYFEPRP, the “shrunken log2 fold change” value was -0.359.

With RRIRLRPPRLPRPRPRPKRPPRP, the “shrunken log2 fold change” value was -0.0353.

As to RRIRDRPPRLPRPRPRPAVKPRP, the “shrunken log2 fold change” value came out at 0.368.

Take RRIRFRPPRLPRPRPRPGFGPRP: the “shrunken log2 fold change” value stood at 0.337.

Turning to RRIRKRPPRLPRPRPRPWAGPRP, the “shrunken log2 fold change” value stood at 0.115.

Regarding RRIRWRPPRLPRPRPRPHACPRP, the “shrunken log2 fold change” value is 0.171.

For the sequence RRIRIRPPRLPRPRPRPWMGPRP, the “shrunken log2 fold change” value is -0.185.

Regarding RRIRCRPPRLPRPRPRPIMVPRP, the “shrunken log2 fold change” value is -0.115.

RRIRDRPPRLPRPRPRPFTMPRP: the “shrunken log2 fold change” value was -0.0235.

Regarding RRIRTRPPRLPRPRPRPHWSPRP, the “shrunken log2 fold change” value was -0.147.

Regarding RRIRCRPPRLPRPRPRPCQEPRP, the “shrunken log2 fold change” value was -0.108.

For RRIRRRPPRLPRPRPRPYVEPRP, the “shrunken log2 fold change” value was -0.482.

Consider RRIRPRPPRLPRPRPRPYTGPRP, for which the “shrunken log2 fold change” value was -0.6.

For RRIRPRPPRLPRPRPRPNEWPRP, the “shrunken log2 fold change” value was -0.203.

On to RRIRIRPPRLPRPRPRPFQWPRP, for which the “shrunken log2 fold change” value was -0.192.

On to RRIRDRPPRLPRPRPRPGAIPRP, for which the “shrunken log2 fold change” value amounted to 0.271.

Consider RRIRCRPPRLPRPRPRPSHKPRP, for which the “shrunken log2 fold change” value was -0.641.

With RRIRYRPPRLPRPRPRPSYRPRP, the “shrunken log2 fold change” value is -0.0896.

For the sequence RRIRPRPPRLPRPRPRPMWWPRP, the “shrunken log2 fold change” value worked out at 0.189.

Regarding RRIRERPPRLPRPRPRPAMKPRP, the “shrunken log2 fold change” value was -0.0226.

Take RRIRLRPPRLPRPRPRPEIKPRP: the “shrunken log2 fold change” value is -0.12.

In the case of RRIRGRPPRLPRPRPRPKIWPRP, the “shrunken log2 fold change” value came out at 0.64.

Regarding RRIRVRPPRLPRPRPRPVEEPRP, the “shrunken log2 fold change” value was -0.143.

As to RRIRGRPPRLPRPRPRPLTGPRP, the “shrunken log2 fold change” value turned out to be 0.71.

With RRIRKRPPRLPRPRPRPPEMPRP, the “shrunken log2 fold change” value was 0.262.

On to RRIRKRPPRLPRPRPRPIISPRP, for which the “shrunken log2 fold change” value is -0.132.

As to RRIRTRPPRLPRPRPRPWGGPRP, the “shrunken log2 fold change” value was 0.439.

For RRIRPRPPRLPRPRPRPTYFPRP, the “shrunken log2 fold change” value is -0.179.

Take RRIRNRPPRLPRPRPRPYASPRP: the “shrunken log2 fold change” value is -0.397.

On to RRIRWRPPRLPRPRPRPGGLPRP, for which the “shrunken log2 fold change” value amounted to 0.403.

For RRIRARPPRLPRPRPRPYDSPRP, the “shrunken log2 fold change” value is -0.0577.

For RRIRWRPPRLPRPRPRPYHLPRP, the “shrunken log2 fold change” value is -0.146.

RRIRIRPPRLPRPRPRPSKPPRP: the “shrunken log2 fold change” value was -0.189.

RRIRMRPPRLPRPRPRPQDEPRP: the “shrunken log2 fold change” value is -0.0393.

As to RRIRERPPRLPRPRPRPADLPRP, the “shrunken log2 fold change” value is -0.175.

RRIRSRPPRLPRPRPRPACFPRP: the “shrunken log2 fold change” value came out at 1.54.

For the sequence RRIRERPPRLPRPRPRPTMFPRP, the “shrunken log2 fold change” value is -0.724.

For the sequence RRIRDRPPRLPRPRPRPLCEPRP, the “shrunken log2 fold change” value turned out to be 0.715.
